# Measurements as given in patent publication CN101415728A (dated 2009).
# B1: M13-C06 Fab (Fab, V domains shown)
# VH: EVQLLESGGGLVQPGGSLRLSCAASGFTFSIYRMQWVRQAPGKGLEWVSGISPSGGTTWYADSVKGRFTISRDNSKNTLYLQMNSLRAEDTAVYYCARWSGGSGYAFDIWGQGTMVTVSS
# VL: DIQMTQSPLSLSASVGDRVTITCQASRDIRNYLNWYQQKPGKAPKLLIYDASSLQTGVPSRFGGSGSGTDFSFTIGSLQPEDIATYYCQQFDSLPHTFGQGTKLEIK
# notes: Human Fab from a phage library (VH3-23 germline framework, kappa light chain)
# B2: M13-C06 antibody (full-length, IgG4 version not stated) (antibody, V domains shown)
# VH: B1 VH
# VL: B1 VL
# notes: Fully human full-length antibody; In tr-FRET it carried a europium chelate (10.3:1 Eu:C06); also called M13-C06_Ab; Eu-C06
# B3: M14-G11.G4.P (antibody, human IgG4, V domains shown, not shown: a dimerising Fc or GST)
# VH: EVQLLESGGGLVQPGGSLRLSCAASGFTFSNYPMYWVRQAPGKGLEWVSRISSSGGRTVYADSVKGRFTISRDNSKNTLYLQMNSLRAEDTAVYYCARDRWSRSAAEYGLGGYWGQGTLVTVSS
# VL: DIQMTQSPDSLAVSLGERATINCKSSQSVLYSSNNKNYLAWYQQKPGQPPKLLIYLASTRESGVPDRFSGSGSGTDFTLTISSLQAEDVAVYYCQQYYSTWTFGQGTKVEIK
# B4: M12-E01 Fab (Fab, V domains shown)
# VH: EVQLLESGGGLVQPGGSLRLSCAASGFTFSPYSMLWVRQAPGKGLEWVSSIGSSGGSTRYADSVKGRFTISRDNSKNTLYLQMNSLRAEDTAMYYCARVRGILHYDILIGRNLYYYYMDVWGKGTTVTVSS
# VL: QYELTQPPSVSEAPRQRVTISCSGSSSNIGNNAINWYQQLPGKPPKLLIYYDDLLPSGVSDRFSGSKSGTSGSLAISGLQSEDEADYYCAAWDDNLNGVIFGGGTKLTVL
# notes: Human Fab from a phage library (VH3-23, lambda light chain)
# B5: M14-B01 Fab (Fab, V domains shown)
# VH: EVQLLESGGGLVQPGGSLRLSCAASGFTFSNYHMAWVRQAPGKGLEWVSVISPTGGRTTYADSVKGRFTISRDNSKNTLYLQMNSLRAEDTATYYCARAGYSYGYGYFDYWGQGTLVTVSS
# VL: DIQMTQFPATLSVSPGERATLSCRASQSVMRNLAWYQQKPGQPPRLLIYGASKRATGIPARFSGSGSGTAFTLTISNLEPEDFAVYYCHQRSTWPLGTFGPGTKLEAK
# notes: Human Fab from a phage library (VH3-23, kappa)
# B6: 小鼠IGF-1R(1-903)-Fc (Fc fusion)
# chain: not shown
# notes: range 1-903; also called mIGF-1R-Fc; mIGF1R; not shown: C-terminal human IgG1-Fc tag
# Legend:
# 小鼠IGF-1R(1-903)-Fc [1] = target: B6; assay: SPR, compared with hIGF-1R-Fc
# 人INSR(28-956)-His 10 [2] = target: T1, 人INSR(28-956)-His 10 (human, UniProt P06213 28-956); assay: ELISA on plates coated with rh-INSR
# T1 construct: range 28-956; Bought from R&D Systems; also called INSR-His 10; rh-INSR (R&D Systems #1544-IR)
# 小鼠IGF-1R(1-903)-Fc [3] = target: B6; assay: SPR, second run with 3 h dissociation
# 小鼠IGF-1R(1-903)-Fc [4] = target: B6; assay: SPR, receptor-Fc captured by anti-human IgG-Fc, Fab injected, 1:1 model (also printed as 89.1nM)
# 小鼠IGF-1R(1-903)-Fc [5] = target: B6; assay: SPR, receptor-Fc captured by anti-human IgG-Fc, Fab injected, 1:1 model
# 人INSR(28-956)-His 10 [6] = target: T1, 人INSR(28-956)-His 10; assay: tr-FRET competition (Eu-C06 / Cy5-hIGF-1R-His10)
# [7] = target: human IGF-1R expressed on cells (human); assay: cell-based or functional assay
# [8] = target: B2; assay: tr-FRET competition against Cy5-IGF1R-His10 for Eu-C06
# T1 sequence (P06213 other isoform, or with tags, fused parts or gaps limits assumed): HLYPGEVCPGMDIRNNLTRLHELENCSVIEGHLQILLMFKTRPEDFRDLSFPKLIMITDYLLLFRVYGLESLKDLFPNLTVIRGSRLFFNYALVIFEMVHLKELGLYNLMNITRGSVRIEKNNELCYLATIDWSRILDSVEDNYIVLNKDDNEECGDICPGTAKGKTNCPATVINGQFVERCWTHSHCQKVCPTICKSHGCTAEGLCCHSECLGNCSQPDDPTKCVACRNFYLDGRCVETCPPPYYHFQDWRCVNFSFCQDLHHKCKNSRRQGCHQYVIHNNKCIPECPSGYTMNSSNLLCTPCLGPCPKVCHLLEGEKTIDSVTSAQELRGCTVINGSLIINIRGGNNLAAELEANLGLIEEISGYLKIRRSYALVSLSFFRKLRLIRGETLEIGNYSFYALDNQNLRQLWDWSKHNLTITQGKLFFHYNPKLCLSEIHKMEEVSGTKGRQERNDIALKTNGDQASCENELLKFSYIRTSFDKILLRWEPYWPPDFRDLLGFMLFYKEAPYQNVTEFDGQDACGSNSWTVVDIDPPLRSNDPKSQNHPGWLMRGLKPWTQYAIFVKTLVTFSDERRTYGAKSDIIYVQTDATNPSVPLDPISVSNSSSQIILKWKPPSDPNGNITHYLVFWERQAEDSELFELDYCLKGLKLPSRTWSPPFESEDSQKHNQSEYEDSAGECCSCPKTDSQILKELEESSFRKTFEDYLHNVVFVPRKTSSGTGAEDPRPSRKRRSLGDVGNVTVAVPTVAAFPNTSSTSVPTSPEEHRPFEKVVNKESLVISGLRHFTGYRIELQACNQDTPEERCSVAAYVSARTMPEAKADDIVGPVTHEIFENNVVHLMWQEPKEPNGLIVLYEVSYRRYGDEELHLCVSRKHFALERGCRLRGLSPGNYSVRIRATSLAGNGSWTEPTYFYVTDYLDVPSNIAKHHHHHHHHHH
# 小鼠IGF-1R(1-903)-Fc, sequence (Q60751 31-933 limits assumed): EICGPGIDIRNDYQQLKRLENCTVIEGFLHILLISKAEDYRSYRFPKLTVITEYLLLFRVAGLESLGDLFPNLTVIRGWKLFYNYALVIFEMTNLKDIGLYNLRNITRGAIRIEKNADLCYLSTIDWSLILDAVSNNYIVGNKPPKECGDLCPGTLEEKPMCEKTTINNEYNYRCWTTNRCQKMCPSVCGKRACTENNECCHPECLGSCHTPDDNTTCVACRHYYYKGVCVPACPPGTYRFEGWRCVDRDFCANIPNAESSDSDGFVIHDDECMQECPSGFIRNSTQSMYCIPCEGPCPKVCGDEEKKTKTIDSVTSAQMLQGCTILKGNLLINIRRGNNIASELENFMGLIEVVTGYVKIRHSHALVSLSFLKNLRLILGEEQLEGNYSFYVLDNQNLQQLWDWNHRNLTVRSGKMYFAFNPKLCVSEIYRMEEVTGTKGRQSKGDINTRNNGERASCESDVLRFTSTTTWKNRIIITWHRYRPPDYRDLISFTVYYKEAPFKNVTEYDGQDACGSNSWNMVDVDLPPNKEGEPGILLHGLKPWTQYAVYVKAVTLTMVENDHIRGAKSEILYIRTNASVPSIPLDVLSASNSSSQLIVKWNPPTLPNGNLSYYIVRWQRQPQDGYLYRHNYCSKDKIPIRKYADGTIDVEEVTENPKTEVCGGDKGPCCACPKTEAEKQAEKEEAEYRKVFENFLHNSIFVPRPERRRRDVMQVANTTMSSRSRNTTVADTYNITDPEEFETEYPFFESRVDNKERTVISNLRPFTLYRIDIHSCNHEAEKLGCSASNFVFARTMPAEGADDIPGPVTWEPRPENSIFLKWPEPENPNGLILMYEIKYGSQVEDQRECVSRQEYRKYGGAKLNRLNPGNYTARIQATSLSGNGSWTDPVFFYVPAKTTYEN
binder,measurement,setting,value
B1,fold decrease of binding against human IGF-1R,小鼠IGF-1R(1-903)-Fc [1],100 fold
same,binding result,人INSR(28-956)-His 10 [2],no binding (tested: 2μM)
same,koff,小鼠IGF-1R(1-903)-Fc [3],4.2e-05 s⁻¹
same,Kd,小鼠IGF-1R(1-903)-Fc [4],89.1 nM
same,kon,小鼠IGF-1R(1-903)-Fc [5],471 M⁻¹ s⁻¹
B2,binding result,人INSR(28-956)-His 10 [6],no binding (tested: IC50以上100倍的浓度)
B3,"inhibition of IGF-1- and IGF-2-mediated IGF-1R phosphorylation in MCF-7 cells, EC50",[7],< 1 nM
B4,binding result,人INSR(28-956)-His 10 [2],no binding (tested: 2μM)
B5,binding result,人INSR(28-956)-His 10 [2],no binding (tested: 2μM)
B6,IC50,[8],> 100 µg/mL
